For two proteins, Km results are on record in PMC2788523, “Overexpression and characterization of medium-chain-length polyhydroxyalkanoate granule bound polymerases from Pseudomonas putida GPo1” (Microbial Cell Factories, 2009).

Substrate in the series: CCCCC[C@@H](O)CC(=O)SCCNC(=O)CCNC(=O)[C@H](O)C(C)(C)COP(=O)(O)OP(=O)(O)OC[C@H]1O[C@@H](n2cnc3c(N)ncnc32)[C@H](O)[C@@H]1OP(=O)(O)O
The series is described as follows: cells, lysate or membranes. The format is biochemical, Ectopseudomonas oleovorans. As to conditions: granule-bound enzyme (isolated PHA granules), 100 mM Tris-HCl pH 8, 1 mg/ml BSA, 0.5 mM MgCl2, substrate 0.0375-0.25 mM.

B1: PhaC2 (PHA polymerase 2), granule-bound (Ectopseudomonas oleovorans) (protein)
chain: MKDKPAKGTPTLPATSMNVQNAILGLRGRDLISTLRNVSRQSLRHPLHTAHHLLALGGQLGRVILGDTPLQPNPRDPRFSDPTWSQNPFYRRGLQAYLAWQKQTRLWIEESHLDDDDRARAHFLFNLINDALAPSNSLLNPLAVKELFNSGGQSLVRGVAHLLDDLRHNDGLPRQVDERAFEVGGNLAATAGAVVFRNELLELIQYKPMSEKQHARPLLVVPPQINKFYIFDLSSTNSFVQYMLKNGLQVFMVSWRNPDPRHREWGLSSYVQALEEALNACRSISGNRDPNLMGACAGGLTMAALQGHLQAKHQLRRVRSATYLVSLLDSKFESPASLFADEQTIEAAKRRSYQRGVLDGAEVARIFAWMRPNDLIWNYWVNNYLLGKTPPAFDILYWNADSTRLPAALHGDLLDFFKLNPLTHPAGLEVCGTPIDLQKVELDSFTVAGSNDHITPWDAVYRSALLLGGDRRFVLANSGHIQSIINPPGNPKAYYLANPKLSSDPRAWLHDAKRSEGSWWPLWLEWITARSGPLKAPRSELGNATYPPLGPAPGTYVLTR
notes: overexpressed from pGEc404 in PHA-negative P. putida GPp104; assayed on isolated PHA granules (other granule proteins present)
As to B1, the Michaelis-Menten constant (Km) (commonly the concentration of substrate that gives half-maximal velocity) turned out to be 37 ± 10 µM.

B2: PhaC1 (PHA polymerase 1), granule-bound (Ectopseudomonas oleovorans) (protein)
chain: MSNKNNDELQRQASENTLGLNPVIGIRRKDLLSSARTVLRQAVRQPLHSAKHVAHFGLELKNVLLGKSSLAPESDDRRFNDPAWSNNPLYRRYLQTYLAWRKELQDWIGNSDLSPQDISRGQFVINLMTEAMAPTNTLSNPAAVKRFFETGGKSLLDGLSNLAKDLVNNGGMPSQVNMDAFEVGKNLGTSEGAVVYRNDVLELIQYKPITEQVHARPLLVVPPQINKFYVFDLSPEKSLARYCLRSQQQTFIISWRNPTKAQREWGLSTYIDALKEAVDAVLAITGSKDLNMLGACSGGITCTALVGHYAALGENKVNALTLLVSVLDTTMDNQVALFVDEQTLEAAKRHSYQAGVLEGSEMAKVFAWMRPNDLIWNYWVNNYLLGNEPPVFDILFWNNDTTRLPAAFHGDLIEMFKSNPLTRPDALEVCGTPIDLKQVKCDIYSLAGTNDHITPWQSCYRSAHLFGGKIEFVLSNSGHIQSILNPPGNPKARFMTGADRPGDPVAWQENATKHADSWWLHWQSWLGERAGELEKAPTRLGNRAYAAGEASPGTYVHER
notes: overexpressed from pGEc405 in PHA-negative P. putida GPp104; assayed on isolated PHA granules (other granule proteins present)
Take B2: the Km was 125 ± 35 µM.
